Columns and labels:
[1] = molecular target: T1, RNA polymerase core enzyme (subunits α2ββ'ω) (UniProt P0A7Z4 1-329; P0A8V2 1-1342; P0A8T7 1-1407; P0A800 1-91); experiment: BLI; Octet RED96, 303 K; 0.5 μM Biotin-DinB immobilised on streptavidin biosensors, blocked with biocytin; RNAP core as analyte in 2-fold serial dilution; 50 mM KPi pH 6.5, 150 mM NaCl, 25 mM MgCl2, 1 mM TCEP, 0.5% BSA; double referencing; settings: both partners purified
[2] = molecular target: T1, RNA polymerase core enzyme (subunits …); experiment: BLI; Octet RED96, 303 K; 0.5 μM Biotin-DinBΔPAD immobilised on streptavidin biosensors, blocked with biocytin; RNAP core as analyte in 2-fold serial dilution; 50 mM KPi pH 6.5, 50 mM NaCl, 25 mM MgCl2, 1 mM TCEP, 0.25% BSA; double referencing; settings: both partners purified

| Binder | Kd [1] [nM] | Kd [2] [nM] |
| --- | --- | --- |
| DNA polymerase IV (DinB), DinB^1-351 (enzyme, E. coli, UniProt Q47155 1-351, looked up, biotin (EZ-Link NHS-PEG4-Biotin, conditions favouring the amino-terminal α-amino group) in the BLI assay; isotope-labelled ([U-2H,15N] or MALVI^proS methyl-labelled) in the NMR titrations, E. coli DNA polymerase IV (DinB), residues 1-351, from pET28b(+)-DinB (Genscript); No removal of the His6 tag is described for DinB and DinBΔPAD; also called full-length DinB; MALVI^proS-DinB; source: E. coli BL21 (λDE3), purified (Ni2+-Histrap, heparin, SEC)) MRKIIHVDMDCFFAAVEMRDNPALRDIPIAIGGSRERRGVISTANYPARKFGVRSAMPTGMALKLCPHLTLLPGRFDAYKEASNHIREIFSRYTSRIEPLSLDEAYLDVTDSVHCHGSATLIAQEIRQTIFNELQLTASAGVAPVKFLAKIASDMNKPNGQFVITPAEVPAFLQTLPLAKIPGVGKVSAAKLEAMGLRTCGDVQKCDLVMLLKRFGKFGRILWERSQGIDERDVNSERLRKSVGVERTMAEDIHHWSECEAIIERLYPELERRLAKVKPDLLIARQGVKLKFDDFQQTTQEHVWPRLNKADLIATARKTWDERRGGRGVRLVGLHVTLLDPQMERQLVLGL | 6.4 ± 0.07 | – |
| DinBΔPAD (DinB^1-230) (domain or fragment, E. coli, UniProt Q47155 1-230, looked up, biotin (EZ-Link NHS-PEG4-Biotin, conditions favouring the amino-terminal α-amino group) in the BLI assay; [U-2H,15N]-labelled in the NMR titration, E. coli DNA polymerase IV (DinB), residues 1-230 (Fingers, Palm, Thumb); stop codon introduced at amino acid 231; also called Biotin-DinBΔPAD; source: E. coli BL21 (λDE3), purified (Ni2+-Histrap, heparin, SEC)) MRKIIHVDMDCFFAAVEMRDNPALRDIPIAIGGSRERRGVISTANYPARKFGVRSAMPTGMALKLCPHLTLLPGRFDAYKEASNHIREIFSRYTSRIEPLSLDEAYLDVTDSVHCHGSATLIAQEIRQTIFNELQLTASAGVAPVKFLAKIASDMNKPNGQFVITPAEVPAFLQTLPLAKIPGVGKVSAAKLEAMGLRTCGDVQKCDLVMLLKRFGKFGRILWERSQGID | – | 5.9 ± 0.05 |

Reference: article PMC10359629, “Thumb-domain dynamics modulate the functional repertoire of DNA-Polymerase IV (DinB)” (Nucleic Acids Research, 2022)
